Results from the supplement of paper PMC10065799, “High-throughput profiling of sequence recognition by tyrosine kinases and SH2 domains using bacterial peptide display” (eLife, 2023).

Columns and labels:
Fer (mouse) = assay: phosphorylation enrichment, bacterial display (enrichment ratio); higher = better substrate or ligand; peptides without Tyr show the background
Fyn = Fyn (UniProt P06241); assay: as above
AncSZ = assay: as above
MERTK = MERTK (UniProt Q12866); assay: as above
Jak2 = Jak2 (UniProt O60674); assay: as above
c-Abl (mouse) = assay: as above
c-Src = assay: as above
FGFR1 = FGFR1 (UniProt P11362); assay: as above
FGFR3 = FGFR3 (UniProt P22607); assay: as above
FGFR3, sequence (P22607 whole entry, looked up): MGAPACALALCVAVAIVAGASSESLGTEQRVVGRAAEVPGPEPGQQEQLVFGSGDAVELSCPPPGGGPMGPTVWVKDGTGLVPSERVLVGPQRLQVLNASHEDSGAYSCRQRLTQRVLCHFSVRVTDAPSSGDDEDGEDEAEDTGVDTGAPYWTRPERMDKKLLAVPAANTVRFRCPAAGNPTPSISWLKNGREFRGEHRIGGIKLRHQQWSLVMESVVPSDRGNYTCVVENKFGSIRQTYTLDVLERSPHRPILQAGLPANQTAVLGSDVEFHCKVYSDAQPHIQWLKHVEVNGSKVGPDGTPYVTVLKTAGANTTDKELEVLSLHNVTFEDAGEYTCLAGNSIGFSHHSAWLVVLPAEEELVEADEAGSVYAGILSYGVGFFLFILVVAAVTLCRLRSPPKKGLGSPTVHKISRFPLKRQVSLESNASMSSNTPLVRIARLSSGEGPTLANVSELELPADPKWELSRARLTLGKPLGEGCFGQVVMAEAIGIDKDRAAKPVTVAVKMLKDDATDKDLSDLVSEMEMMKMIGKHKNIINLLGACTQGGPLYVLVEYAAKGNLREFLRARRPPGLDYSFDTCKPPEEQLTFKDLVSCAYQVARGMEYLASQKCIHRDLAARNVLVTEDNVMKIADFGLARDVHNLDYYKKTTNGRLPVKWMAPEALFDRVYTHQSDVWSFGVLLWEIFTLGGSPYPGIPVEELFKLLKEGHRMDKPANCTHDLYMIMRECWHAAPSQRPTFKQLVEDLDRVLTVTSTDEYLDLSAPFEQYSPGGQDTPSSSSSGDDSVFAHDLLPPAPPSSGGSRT

Fes = Fes (UniProt P07332); assay: as above
Fes, sequence (P07332 whole entry, looked up): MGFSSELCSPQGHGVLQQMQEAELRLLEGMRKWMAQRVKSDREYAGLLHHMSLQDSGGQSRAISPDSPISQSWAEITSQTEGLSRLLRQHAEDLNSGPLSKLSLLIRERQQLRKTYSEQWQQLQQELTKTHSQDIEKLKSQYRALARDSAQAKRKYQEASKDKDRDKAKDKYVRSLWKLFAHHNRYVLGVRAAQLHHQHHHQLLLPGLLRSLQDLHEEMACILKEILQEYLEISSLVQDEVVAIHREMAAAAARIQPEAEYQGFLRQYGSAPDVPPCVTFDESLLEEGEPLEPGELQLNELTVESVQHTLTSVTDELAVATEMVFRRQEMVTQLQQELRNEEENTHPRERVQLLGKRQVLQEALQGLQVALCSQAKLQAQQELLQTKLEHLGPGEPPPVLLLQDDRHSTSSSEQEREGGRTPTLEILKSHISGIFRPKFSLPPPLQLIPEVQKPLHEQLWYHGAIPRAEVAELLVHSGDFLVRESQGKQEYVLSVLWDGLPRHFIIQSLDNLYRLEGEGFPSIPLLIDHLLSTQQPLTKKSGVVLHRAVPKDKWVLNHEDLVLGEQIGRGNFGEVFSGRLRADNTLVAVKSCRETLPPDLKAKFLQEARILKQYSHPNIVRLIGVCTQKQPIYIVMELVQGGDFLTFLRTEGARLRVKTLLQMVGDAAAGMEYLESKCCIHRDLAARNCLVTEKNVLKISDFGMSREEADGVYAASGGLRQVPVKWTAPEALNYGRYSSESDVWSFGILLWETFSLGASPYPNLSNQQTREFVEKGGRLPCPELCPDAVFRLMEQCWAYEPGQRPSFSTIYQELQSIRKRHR

EPHB2 = EPHB2 (UniProt P29323); assay: as above
EPHB2, sequence (P29323 whole entry, looked up): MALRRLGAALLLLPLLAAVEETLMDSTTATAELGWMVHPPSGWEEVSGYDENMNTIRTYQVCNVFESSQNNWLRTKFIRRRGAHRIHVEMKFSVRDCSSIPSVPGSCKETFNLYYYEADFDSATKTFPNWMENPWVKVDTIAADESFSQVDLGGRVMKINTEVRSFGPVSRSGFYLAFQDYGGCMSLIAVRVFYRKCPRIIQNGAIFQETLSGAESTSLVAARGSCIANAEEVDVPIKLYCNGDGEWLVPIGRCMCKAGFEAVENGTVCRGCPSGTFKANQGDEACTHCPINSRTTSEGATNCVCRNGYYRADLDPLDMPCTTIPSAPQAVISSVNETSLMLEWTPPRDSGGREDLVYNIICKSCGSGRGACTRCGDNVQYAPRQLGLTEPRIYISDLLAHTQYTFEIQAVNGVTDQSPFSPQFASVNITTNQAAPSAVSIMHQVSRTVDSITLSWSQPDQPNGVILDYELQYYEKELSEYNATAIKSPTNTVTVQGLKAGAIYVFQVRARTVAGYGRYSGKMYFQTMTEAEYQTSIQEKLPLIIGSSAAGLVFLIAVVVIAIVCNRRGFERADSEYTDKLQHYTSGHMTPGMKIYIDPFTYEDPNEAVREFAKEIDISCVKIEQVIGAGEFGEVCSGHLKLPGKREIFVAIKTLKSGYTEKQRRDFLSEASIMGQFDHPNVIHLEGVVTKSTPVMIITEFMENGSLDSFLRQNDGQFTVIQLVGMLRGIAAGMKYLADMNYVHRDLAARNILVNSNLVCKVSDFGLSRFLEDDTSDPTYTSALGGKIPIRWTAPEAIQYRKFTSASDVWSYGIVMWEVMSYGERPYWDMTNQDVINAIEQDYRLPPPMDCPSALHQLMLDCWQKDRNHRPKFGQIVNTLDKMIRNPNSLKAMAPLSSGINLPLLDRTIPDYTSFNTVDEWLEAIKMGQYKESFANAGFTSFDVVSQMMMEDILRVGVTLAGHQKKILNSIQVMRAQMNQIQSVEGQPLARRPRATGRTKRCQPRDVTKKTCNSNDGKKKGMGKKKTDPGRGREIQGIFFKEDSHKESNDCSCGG

Hck = Hck (UniProt P08631); assay: as above
EPHB1 = EPHB1 (UniProt P54762); assay: as above
EPHB1, sequence (P54762 whole entry, looked up): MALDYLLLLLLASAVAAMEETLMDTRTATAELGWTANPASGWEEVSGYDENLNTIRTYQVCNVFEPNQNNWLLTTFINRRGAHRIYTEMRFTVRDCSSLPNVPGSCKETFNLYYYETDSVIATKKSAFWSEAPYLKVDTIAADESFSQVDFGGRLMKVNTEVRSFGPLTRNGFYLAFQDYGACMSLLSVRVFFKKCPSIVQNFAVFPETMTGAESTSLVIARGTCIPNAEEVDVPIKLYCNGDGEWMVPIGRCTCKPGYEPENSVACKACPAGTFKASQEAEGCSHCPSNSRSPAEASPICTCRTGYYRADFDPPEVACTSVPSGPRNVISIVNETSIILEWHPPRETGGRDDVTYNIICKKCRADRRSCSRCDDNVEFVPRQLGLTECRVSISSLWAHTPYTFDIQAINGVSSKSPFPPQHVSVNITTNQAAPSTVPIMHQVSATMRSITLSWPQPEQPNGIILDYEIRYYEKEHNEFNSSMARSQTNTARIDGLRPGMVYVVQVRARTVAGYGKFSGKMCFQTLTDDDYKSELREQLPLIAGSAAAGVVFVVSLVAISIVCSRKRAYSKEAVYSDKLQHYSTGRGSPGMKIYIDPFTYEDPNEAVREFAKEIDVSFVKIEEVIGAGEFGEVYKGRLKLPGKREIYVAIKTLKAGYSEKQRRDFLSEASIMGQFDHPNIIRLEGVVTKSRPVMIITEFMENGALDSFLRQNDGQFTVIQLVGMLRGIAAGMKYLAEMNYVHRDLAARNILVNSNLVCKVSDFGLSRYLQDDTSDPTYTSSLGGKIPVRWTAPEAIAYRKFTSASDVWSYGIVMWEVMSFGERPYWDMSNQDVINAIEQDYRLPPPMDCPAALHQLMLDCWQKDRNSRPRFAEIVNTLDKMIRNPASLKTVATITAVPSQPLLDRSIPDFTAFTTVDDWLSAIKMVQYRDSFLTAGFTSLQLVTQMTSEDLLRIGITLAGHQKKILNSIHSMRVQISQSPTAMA

Grb2 SH2 = Grb2 SH2 (UniProt P62993); assay: SH2 binding enrichment of the phosphorylated peptide, bacterial display (enrichment ratio); higher = better substrate or ligand; peptides without Tyr show the background
Grb2 SH2, sequence (P62993 whole entry, looked up): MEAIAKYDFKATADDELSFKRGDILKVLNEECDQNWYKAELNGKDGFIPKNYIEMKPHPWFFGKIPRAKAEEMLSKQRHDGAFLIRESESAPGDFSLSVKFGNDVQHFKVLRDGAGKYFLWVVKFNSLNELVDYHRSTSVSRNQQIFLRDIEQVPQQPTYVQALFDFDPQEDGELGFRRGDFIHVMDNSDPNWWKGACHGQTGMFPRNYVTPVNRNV

SHP2-C SH2 = assay: as above
c-Src SH2 = assay: as above
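Throughout, for SH2 binding enrichment of the phosphorylated peptide, bacterial display: peptide library displayed on the E. coli surface as eCPX fusions, selected cells deep-sequenced, score is each peptide's frequency after selection divided by its frequency in the input.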
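Throughout, for phosphorylation enrichment, bacterial display: 11-residue human phosphosite peptides and single-mutation variants displayed on the E. coli surface, counted by deep sequencing, each peptide's frequency after selection divided by its frequency in the unselected input library; frequency after pTyr selection over input frequency; kinase dosed for 20-30% of maximal phosphorylation in three min.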

MERTK, sequence (Q12866 whole entry, looked up): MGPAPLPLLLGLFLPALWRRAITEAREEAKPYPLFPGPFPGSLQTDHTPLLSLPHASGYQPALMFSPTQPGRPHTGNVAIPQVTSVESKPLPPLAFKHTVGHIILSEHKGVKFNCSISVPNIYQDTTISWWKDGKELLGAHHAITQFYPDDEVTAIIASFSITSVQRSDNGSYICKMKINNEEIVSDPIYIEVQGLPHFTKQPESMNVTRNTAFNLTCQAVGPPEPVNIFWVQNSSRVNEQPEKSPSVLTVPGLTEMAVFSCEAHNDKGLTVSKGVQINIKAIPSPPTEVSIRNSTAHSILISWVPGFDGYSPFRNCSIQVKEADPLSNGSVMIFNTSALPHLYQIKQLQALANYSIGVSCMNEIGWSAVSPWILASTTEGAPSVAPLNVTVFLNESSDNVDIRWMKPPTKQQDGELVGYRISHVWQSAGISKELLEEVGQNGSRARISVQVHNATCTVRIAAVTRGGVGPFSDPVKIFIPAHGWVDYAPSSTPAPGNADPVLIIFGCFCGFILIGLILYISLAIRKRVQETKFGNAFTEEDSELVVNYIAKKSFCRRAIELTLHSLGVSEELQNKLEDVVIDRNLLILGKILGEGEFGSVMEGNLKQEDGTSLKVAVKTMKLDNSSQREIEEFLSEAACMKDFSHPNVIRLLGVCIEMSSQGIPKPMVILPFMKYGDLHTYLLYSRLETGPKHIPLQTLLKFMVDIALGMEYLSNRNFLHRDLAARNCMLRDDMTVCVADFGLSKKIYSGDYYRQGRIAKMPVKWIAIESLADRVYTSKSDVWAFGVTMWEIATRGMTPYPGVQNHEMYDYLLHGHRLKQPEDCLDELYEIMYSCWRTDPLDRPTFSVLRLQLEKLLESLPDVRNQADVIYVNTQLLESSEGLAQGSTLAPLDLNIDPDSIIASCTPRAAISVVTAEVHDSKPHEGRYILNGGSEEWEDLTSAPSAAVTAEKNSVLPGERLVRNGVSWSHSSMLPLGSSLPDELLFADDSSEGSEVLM

Sequence | phosphorylation enrichment (Fer (mouse)) | phosphorylation enrichment (Fyn) | phosphorylation enrichment (AncSZ) | phosphorylation enrichment (MERTK) | phosphorylation enrichment (Jak2) | phosphorylation enrichment (c-Abl (mouse)) | phosphorylation enrichment (c-Src) | phosphorylation enrichment (FGFR1) | phosphorylation enrichment (FGFR3) | phosphorylation enrichment (Fes) | phosphorylation enrichment (EPHB2) | phosphorylation enrichment (Hck) | phosphorylation enrichment (EPHB1) | SH2 binding enrichment (Grb2 SH2) | SH2 binding enrichment (SHP2-C SH2) | SH2 binding enrichment (c-Src SH2)
IVLEKYKLLPE [DHFR_Y157_D153V] | 0.45 | 0.453 | 0.843 | 0.386 | 0.809 | 0.676 | 0.346 | 0.596 | 0.752 | 1.07 | 0.638 | 0.458 | 0.53 | 0.922 | 0.907 | 0.575
KDGNGYISVAE [CALM3_Y100_A103V] | 0.442 | 0.407 | 0.771 | 0.418 | 0.671 | 0.679 | 0.598 | 0.404 | 0.473 | 0.859 | 0.485 | 0.462 | 0.362 | 0.685 | 0.746 | 2.5
RALRHYFKLNI [ETV6_Y401_YF] | 0.369 | 0.373 | 0.725 | 0.4 | 0.798 | 0.594 | 0.394 | 0.485 | 0.55 | 0.874 | 0.358 | 0.377 | 0.342 | 2.81 | 2.6 | 1.66
IDGLEYLHSQS [STK11_Y166_G171S] | 0.476 | 0.465 | 0.953 | 0.325 | 0.831 | 0.616 | 0.357 | 0.457 | 0.597 | 1.07 | 0.549 | 0.604 | 0.503 | 0.768 | 0.622 | 0.413
RLLRGYDQLAY [HLA-C_Y137_S140L] | 0.758 | 0.735 | 1.29 | 0.581 | 0.649 | 0.477 | 0.45 | 0.65 | 0.976 | 1.02 | 0.67 | 0.637 | 0.719 | 1.1 | 0.727 | 5.06
RLLRGHDQSAF [HLA-C_Y137_Y137H_YF] | 0.357 | 0.501 | 0.79 | 0.421 | 0.732 | 0.653 | 0.573 | 0.427 | 0.47 | 0.738 | 0.389 | 0.566 | 0.465 | 0.89 | 0.718 | 0.657
PLTRSYIREKV [CYP2C8_Y243_A238P] | 0.262 | 0.474 | 0.582 | 0.406 | 0.591 | 0.305 | 0.448 | 0.341 | 0.48 | 0.413 | 0.484 | 0.312 | 0.276 | 0.923 | 0.904 | 0.351
AHAGGYGAEAL [HBA1_Y25_E24G] | 0.398 | 0.433 | 0.63 | 0.438 | 0.559 | 0.599 | 0.385 | 0.421 | 0.489 | 0.665 | 0.482 | 0.454 | 0.436 | 0.905 | 0.546 | 0.433
KDQGIYEDFVE [MYL6_Y86_T85I_YF] | 1.82 | 2.6 | 1.45 | 0.614 | 1.3 | 0.932 | 2.84 | 0.688 | 0.901 | 1.49 | 0.949 | 1.07 | 0.831 | 1.05 | 1.07 | 0.572
ELQDDYEDTME [SLC4A1_Y8_M11T] | 0.805 | 0.77 | 1.47 | 0.526 | 1.47 | 1 | 0.603 | 0.649 | 0.972 | 1.39 | 0.836 | 0.649 | 0.942 | 0.802 | 0.516 | 0.582
NLGQQYNSPQE [UMPS_Y432] | 0.498 | 0.495 | 0.895 | 0.413 | 0.78 | 0.634 | 0.374 | 0.614 | 0.675 | 0.974 | 0.579 | 0.502 | 0.563 | 0.814 | 0.602 | 0.573
QNVADYMRFLM [RPL5_Y207_YF] | 0.818 | 1.2 | 1.73 | 0.814 | 2.91 | 1.42 | 1.64 | 0.871 | 1.09 | 1.97 | 1.92 | 1.09 | 1.79 | 0.894 | 0.842 | 0.62
KRIETYFSKNY [PLP1_Y50_L46R] | 0.377 | 0.374 | 0.658 | 0.392 | 0.661 | 0.532 | 0.384 | 0.436 | 0.504 | 0.748 | 0.365 | 0.484 | 0.427 | 0.787 | 0.71 | 0.502
CTTIHFNFMCN [TP53_Y234_Y234F_YF] | 0.569 | 0.484 | 1.07 | 0.525 | 1.33 | 0.824 | 0.507 | 0.614 | 0.83 | 1.31 | 0.656 | 0.582 | 0.604 | 2.01 | 2.02 | 1.93
ACDALYPPGPP | 0.469 | 0.482 | 0.774 | 0.43 | 0.615 | 0.566 | 0.444 | 0.482 | 0.522 | 0.861 | 0.432 | 0.391 | 0.485 | 1.07 | 1.11 | 0.632
RQSRNYLGGFA [SYK_Y47] | 0.404 | 0.597 | 0.841 | 1.75 | 0.436 | 0.684 | 0.69 | 0.329 | 0.386 | 0.562 | 0.56 | 0.483 | 0.316 | 0.612 | 0.519 | 0.407
TPGPNYCPGFN [USH2A_Y463_R464C_YF] | 0.557 | 0.578 | 0.334 | 0.507 | 0.662 | 0.643 | 0.944 | 0.515 | 0.35 | 0.643 | 0.254 | 0.333 | 0.499 | 0.987 | 0.645 | 0.632

Sequence | phosphorylation enrichment (Fer (mouse)) | phosphorylation enrichment (Fyn) | phosphorylation enrichment (AncSZ) | phosphorylation enrichment (MERTK) | phosphorylation enrichment (Jak2) | phosphorylation enrichment (c-Abl (mouse)) | phosphorylation enrichment (c-Src) | phosphorylation enrichment (FGFR1) | phosphorylation enrichment (FGFR3) | phosphorylation enrichment (Fes) | phosphorylation enrichment (EPHB2) | phosphorylation enrichment (Hck) | phosphorylation enrichment (EPHB1) | SH2 binding enrichment (Grb2 SH2) | SH2 binding enrichment (SHP2-C SH2) | SH2 binding enrichment (c-Src SH2)
AGIENYKSRFG [NKD2_Y256_T257K] | 0.409 | 0.356 | 0.578 | 0.412 | 0.537 | 0.512 | 0.363 | 0.357 | 0.452 | 0.486 | 0.377 | 0.517 | 0.451 | 0.784 | 0.487 | 0.43
SLALFYRKVFH [RBL1_Y792_YF] | 0.494 | 0.502 | 1.36 | 0.385 | 1.11 | 0.535 | 0.409 | 0.532 | 0.784 | 1.26 | 0.569 | 0.441 | 0.637 | 0.767 | 0.876 | 0.454
SVTCTYPPALN [TP53_Y126_S127P] | 0.473 | 0.448 | 0.886 | 0.477 | 1.07 | 0.97 | 0.485 | 0.502 | 0.578 | 0.873 | 0.578 | 0.557 | 0.471 | 0.865 | 0.617 | 0.448
VKPENYRRLDI [VHL_Y175] | 0.305 | 0.351 | 0.473 | 0.337 | 0.298 | 0.345 | 0.324 | 0.615 | 0.463 | 0.48 | 0.324 | 0.331 | 0.58 | 0.879 | 0.769 | 0.459
LHRAHYDLCHT [AHSG_Y314_R317C] | 0.516 | 0.401 | 0.814 | 0.435 | 0.88 | 0.777 | 0.495 | 0.513 | 0.648 | 1.12 | 0.542 | 0.47 | 0.572 | 1.13 | 0.935 | 2.25
GDPTEYFSTAI [IGSF22_Y501_YF] | 0.433 | 0.525 | 1.54 | 0.439 | 1.15 | 0.745 | 0.502 | 0.7 | 0.936 | 1.08 | 0.645 | 0.498 | 0.634 | 0.788 | 0.583 | 0.522
ISKKIYDPIHD [CTNNA3_Y614_T616P] | 0.446 | 0.636 | 0.57 | 0.455 | 0.516 | 0.445 | 0.541 | 0.436 | 0.529 | 0.694 | 0.475 | 0.731 | 0.48 | 0.691 | 0.648 | 0.426
SFPSFYTSHVQ [NEFL_Y443_YF] | 0.509 | 0.563 | 0.874 | 1.23 | 0.657 | 0.498 | 0.509 | 0.5 | 0.609 | 0.857 | 0.584 | 0.548 | 0.677 | 0.889 | 1.1 | 0.47
TSIGNYFKPWF [DHCR24_Y299_N294T_YF] | 0.473 | 0.428 | 1.03 | 4.44 | 7.94 | 6.12 | 0.348 | 1.66 | 1.23 | 0.778 | 4.48 | 0.46 | 8.6 | 0.907 | 8.03 | 0.83
GVLKEYGVKVL [CPS1_Y529] | 0.362 | 0.378 | 0.52 | 0.488 | 0.391 | 0.334 | 0.424 | 0.384 | 0.569 | 0.642 | 0.322 | 0.431 | 0.369 | 0.863 | 0.688 | 0.408
FADIAYNFRDG [PAH_Y166_H170D_YF] | 0.473 | 0.534 | 0.695 | 0.47 | 0.654 | 0.551 | 0.583 | 0.41 | 0.613 | 0.892 | 0.476 | 0.464 | 0.446 | 0.953 | 0.58 | 0.424
TLARLYHRDST [LRIG1_Y1029_P1031R] | 0.71 | 0.565 | 0.761 | 0.522 | 0.61 | 0.761 | 0.449 | 0.563 | 0.729 | 0.844 | 0.539 | 0.409 | 0.501 | 0.963 | 0.608 | 0.552
ACCLLYHGDVV [TUBA4A_Y319_R320H] | 1.88 | 0.507 | 0.918 | 0.739 | 0.797 | 0.69 | 5.43 | 2.49 | 1.45 | 0.887 | 0.539 | 0.632 | 0.551 | 1.03 | 0.75 | 0.835
MVSLFYGTAIF [OR10C1_Y251_L255I] | 0.937 | 1.1 | 1.41 | 0.63 | 1.4 | 1.22 | 1.92 | 0.477 | 0.819 | 1.53 | 0.666 | 0.995 | 0.619 | 0.653 | 0.756 | 0.46
RNLDTYQKRLR [PLA2G2D_Y126] | 0.307 | 0.452 | 0.617 | 0.474 | 0.661 | 0.762 | 0.463 | 0.373 | 0.484 | 0.61 | 0.279 | 0.55 | 0.831 | 0.918 | 0.504 | 0.629
KVALLYKPYFY [POLE_Y100_P99L] | 0.474 | 0.457 | 0.987 | 0.473 | 0.977 | 0.866 | 0.737 | 0.483 | 0.693 | 1.11 | 0.483 | 0.514 | 0.605 | 1.43 | 1.44 | 1.36
